What all share (assay): cell-based or functional assay
The target of assay [1] is cynomolgus monkey GLP-1 receptor (cynomolgus monkey) (UniProt F8V479).
Assay [2] addresses cynomolgus monkey glucagon receptor (cynomolgus monkey).
Another assay addresses rat GLP-1 receptor (rat) (UniProt P32301).
Assay [3] concerns the target mouse GLP-1 receptor (mouse) (UniProt O35659).
For assay [4], the target named is T1, human GIP receptor (human) (UniProt P48546).
T1 sequence (looked up): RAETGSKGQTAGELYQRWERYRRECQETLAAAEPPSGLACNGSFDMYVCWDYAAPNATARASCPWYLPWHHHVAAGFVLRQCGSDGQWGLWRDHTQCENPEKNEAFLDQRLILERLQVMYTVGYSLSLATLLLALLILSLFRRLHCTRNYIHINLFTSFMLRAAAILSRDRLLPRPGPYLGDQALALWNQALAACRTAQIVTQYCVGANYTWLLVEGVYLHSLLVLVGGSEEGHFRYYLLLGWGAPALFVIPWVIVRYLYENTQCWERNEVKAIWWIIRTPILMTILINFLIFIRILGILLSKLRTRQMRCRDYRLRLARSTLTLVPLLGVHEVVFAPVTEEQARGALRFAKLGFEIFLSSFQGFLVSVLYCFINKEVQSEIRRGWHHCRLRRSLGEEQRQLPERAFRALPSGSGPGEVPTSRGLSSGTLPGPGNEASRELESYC

Here are results for three substances from patent publication US20160185837A1, “GIP AND GLP-1 RECEPTOR DUAL-AGONISTS FOR THE TREATMENT OF DIABETES” (Medimmune Limited, priority 2013, published 2016).

Chain of mouse GLP-1 receptor (mouse) (O35659 22-463): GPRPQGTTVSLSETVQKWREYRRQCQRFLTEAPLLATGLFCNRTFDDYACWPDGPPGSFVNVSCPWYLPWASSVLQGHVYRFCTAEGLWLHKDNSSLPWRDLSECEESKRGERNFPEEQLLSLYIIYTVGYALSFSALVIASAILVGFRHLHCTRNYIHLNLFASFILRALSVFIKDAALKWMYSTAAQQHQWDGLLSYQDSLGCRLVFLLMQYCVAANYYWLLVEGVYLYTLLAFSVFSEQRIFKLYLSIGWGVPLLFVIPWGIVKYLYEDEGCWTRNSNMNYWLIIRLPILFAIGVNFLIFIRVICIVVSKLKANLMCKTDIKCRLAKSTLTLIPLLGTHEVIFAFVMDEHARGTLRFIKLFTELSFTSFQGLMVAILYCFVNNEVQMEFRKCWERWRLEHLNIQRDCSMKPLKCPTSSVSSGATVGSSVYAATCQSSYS
Chain of rat GLP-1 receptor (rat) (P32301 22-463): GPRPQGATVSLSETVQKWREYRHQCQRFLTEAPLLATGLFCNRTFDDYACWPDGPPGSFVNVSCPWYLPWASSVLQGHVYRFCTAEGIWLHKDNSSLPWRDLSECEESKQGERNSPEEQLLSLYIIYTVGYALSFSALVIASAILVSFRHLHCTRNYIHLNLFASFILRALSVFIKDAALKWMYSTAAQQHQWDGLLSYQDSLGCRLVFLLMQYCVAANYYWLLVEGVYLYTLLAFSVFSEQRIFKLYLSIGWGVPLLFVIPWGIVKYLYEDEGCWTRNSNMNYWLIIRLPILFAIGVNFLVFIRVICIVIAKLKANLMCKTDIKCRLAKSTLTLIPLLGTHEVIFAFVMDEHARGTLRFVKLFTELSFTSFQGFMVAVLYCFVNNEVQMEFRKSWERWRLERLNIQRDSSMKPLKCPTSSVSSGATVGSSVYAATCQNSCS
Chain of cynomolgus monkey GLP-1 receptor (cynomolgus monkey) (F8V479 entry or part of it): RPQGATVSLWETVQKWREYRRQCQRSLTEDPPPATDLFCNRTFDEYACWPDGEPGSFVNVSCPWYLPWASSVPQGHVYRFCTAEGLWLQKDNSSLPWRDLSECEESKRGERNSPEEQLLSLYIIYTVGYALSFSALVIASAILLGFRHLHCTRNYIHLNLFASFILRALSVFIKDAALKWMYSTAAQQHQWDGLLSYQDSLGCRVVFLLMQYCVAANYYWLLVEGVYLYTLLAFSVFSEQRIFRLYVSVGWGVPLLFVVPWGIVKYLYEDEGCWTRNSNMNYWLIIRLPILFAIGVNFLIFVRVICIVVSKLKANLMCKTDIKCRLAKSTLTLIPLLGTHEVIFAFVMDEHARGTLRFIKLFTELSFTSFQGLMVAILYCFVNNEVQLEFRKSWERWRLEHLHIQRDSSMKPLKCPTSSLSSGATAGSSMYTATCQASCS

Regarding liraglutide (peptide), the cAMP EC50, 4.2% cyno serum albumin in assay [1] was 25 pM; in assay [2], > 1 µM.
With “glucagon (from UniProt P01275 53-81) (peptide)”, the results for the cAMP EC50 (with rat GLP-1 receptor (rat); in assay [3]) were 540 pM and 1.8 nM, respectively.
Turning to human GIP (peptide), the cAMP EC50 in assay [4] was found to be 4.7 pM.
